Measured values: US20220267469A1 (LIPUM, published 2022)

T1: Human BSSL (bile salt-stimulated lipase), native (human, UniProt P19835 21-753)
T1 sequence: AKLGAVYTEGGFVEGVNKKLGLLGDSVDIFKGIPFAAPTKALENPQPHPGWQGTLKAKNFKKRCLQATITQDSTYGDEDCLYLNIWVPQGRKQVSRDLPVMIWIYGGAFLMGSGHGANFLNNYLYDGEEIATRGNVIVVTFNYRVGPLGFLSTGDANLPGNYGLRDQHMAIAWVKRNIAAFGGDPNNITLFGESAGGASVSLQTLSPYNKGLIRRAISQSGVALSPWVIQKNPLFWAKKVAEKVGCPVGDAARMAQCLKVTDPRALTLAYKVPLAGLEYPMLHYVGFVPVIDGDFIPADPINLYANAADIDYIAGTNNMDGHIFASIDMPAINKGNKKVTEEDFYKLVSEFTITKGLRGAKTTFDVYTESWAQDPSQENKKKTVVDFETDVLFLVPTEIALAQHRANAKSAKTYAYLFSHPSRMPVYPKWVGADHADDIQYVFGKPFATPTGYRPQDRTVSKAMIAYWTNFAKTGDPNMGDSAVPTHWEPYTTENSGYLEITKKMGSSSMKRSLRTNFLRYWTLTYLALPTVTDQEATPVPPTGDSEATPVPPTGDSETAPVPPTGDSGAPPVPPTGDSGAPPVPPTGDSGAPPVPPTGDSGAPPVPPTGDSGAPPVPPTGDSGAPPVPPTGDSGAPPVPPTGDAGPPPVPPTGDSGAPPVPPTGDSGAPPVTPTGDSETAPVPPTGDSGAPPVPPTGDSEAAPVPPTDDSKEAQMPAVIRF

T2: Mouse BSSL, recombinant (mouse, UniProt Q64285 21-599)
T2 construct: Bought (R&D Systems, Cat. no 5658-CE); also called mBSSL; murine BSSL
T2 sequence: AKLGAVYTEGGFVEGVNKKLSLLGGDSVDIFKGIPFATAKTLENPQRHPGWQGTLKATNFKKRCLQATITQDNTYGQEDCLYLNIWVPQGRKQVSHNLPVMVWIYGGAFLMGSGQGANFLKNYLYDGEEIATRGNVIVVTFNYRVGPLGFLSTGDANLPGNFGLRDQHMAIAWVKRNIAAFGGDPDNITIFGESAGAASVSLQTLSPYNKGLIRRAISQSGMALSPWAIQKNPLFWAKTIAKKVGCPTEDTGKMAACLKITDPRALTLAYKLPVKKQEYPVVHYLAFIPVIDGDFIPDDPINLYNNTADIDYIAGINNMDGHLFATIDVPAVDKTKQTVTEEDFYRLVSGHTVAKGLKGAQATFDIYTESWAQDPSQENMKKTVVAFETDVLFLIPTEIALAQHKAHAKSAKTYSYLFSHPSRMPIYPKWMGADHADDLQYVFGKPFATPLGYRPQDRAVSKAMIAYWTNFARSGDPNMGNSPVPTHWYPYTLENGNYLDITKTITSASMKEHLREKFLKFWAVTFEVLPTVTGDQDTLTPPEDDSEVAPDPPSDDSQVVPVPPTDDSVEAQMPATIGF

T3: Biotinylated human BSSL (human, UniProt P19835 21-753, Biotinylated on glycosacarides, 30-40 biotin/BSSL)
T3 construct: hBSSL biotinylated in house; also called b-hBSSL; human BSSL-biotin
T3 sequence: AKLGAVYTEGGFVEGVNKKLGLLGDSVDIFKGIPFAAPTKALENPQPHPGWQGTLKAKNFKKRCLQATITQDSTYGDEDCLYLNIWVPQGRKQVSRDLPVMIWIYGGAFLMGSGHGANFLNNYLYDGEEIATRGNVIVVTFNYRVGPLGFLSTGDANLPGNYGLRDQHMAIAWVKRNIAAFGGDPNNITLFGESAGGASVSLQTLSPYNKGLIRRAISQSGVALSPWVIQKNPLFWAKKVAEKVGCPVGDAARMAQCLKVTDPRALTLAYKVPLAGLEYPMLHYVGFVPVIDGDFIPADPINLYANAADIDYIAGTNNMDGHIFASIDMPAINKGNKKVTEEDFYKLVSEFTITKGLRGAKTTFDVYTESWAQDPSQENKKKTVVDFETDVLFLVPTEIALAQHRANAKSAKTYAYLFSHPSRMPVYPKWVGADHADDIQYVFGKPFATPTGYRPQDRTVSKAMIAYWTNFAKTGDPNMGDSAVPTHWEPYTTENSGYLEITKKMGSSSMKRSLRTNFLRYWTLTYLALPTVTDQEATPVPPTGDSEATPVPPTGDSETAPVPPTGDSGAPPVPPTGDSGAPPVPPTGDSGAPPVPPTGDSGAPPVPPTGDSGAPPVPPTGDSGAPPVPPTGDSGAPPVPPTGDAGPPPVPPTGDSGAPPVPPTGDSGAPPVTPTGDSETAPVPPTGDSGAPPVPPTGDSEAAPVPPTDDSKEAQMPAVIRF

B1: S-SL048-46 hIgG4 S228P (antibody, V domains shown)
VH: QVQLVQSGAEVKKPGASVKVSCKASGYTFTSYNMHWVRQAPGQGLEWMGVINPGDGATSYNQKFQGRVTMTRDTSTSTVYMELSSLRSEDTAVYYCARDYYGSSPLGYWGQGTLVTVSS
VL: DIQMTQSPSSLSASVGDRVTITCRASSSISYLNWYQQKPGKAPKLLIYAASSLASGVPSRFSGSGSGTDFTLTISSLQPEDFATYYCHQRSSSPTFGQGTKLEIKR
notes: also called clone 46; mAb46
B2: S-SL048-118 hIgG4 S228P (antibody, V domains shown)
VH: QVQLVQSGAEVKKPGASVKVSCKASGYTFTSYNMHWVRQAPGQGLEWMGVINPGDGATSYAQKFKGRVTMTRDTSTSTVYMELSSLRSEDTAVYYCARDYYGSSPLGYWGQGTLVTVSS
VL: DIQMTQSPSSLSASVGDRVTITCSASPSISYMNWYQQKPGKAPKLLIYATSSLPSGVPSRFSGSGSGTDFTLTISSLQPEDFATYYCHQRSSSPTFGQGTKLEIKR
notes: also called clone 118; mAb118
B3: S-SL048-116 hIgG4 S228P (antibody, V domains shown)
VH: QVQLVQSGAEVKKPGASVKVSCKASGYTFTSYNMHWVRQAPGQGLEWMGVINPGDGATSYAQKFKGRVTMTRDTSTSTVYMELSSLRSEDTAVYYCARDYYGSSPLGYWGQGTLVTVSS
VL: DIQMTQSPSSLSASVGDRVTITCRASPSISYMNWYQQKPGKAPKLLIYATSSLASGVPSRFSGSGSGTDFTLTISSLQPEDFATYYCHQRSSSPTFGQGTKLEIKR
notes: also called mAb116

How the values were obtained:
[1] = target: T1, Human BSSL (bile salt-stimulated …); assay: cell-based or functional assay
[2] = target: T1, Human BSSL (bile salt-stimulated …); assay: cell-based or functional assay; remark: listed apart in the source
Mouse BSSL, recombinant [3] = target: T2, Mouse BSSL, recombinant; assay: SPR steady state, hIgG4 S228P captured by anti-Fab
Protocol: (§1) Kinetic parameters of the hIgG4 S228P clones were determined by SPR using BIACORE® T200 (GE Healthcare). Single cycle kinetics was used to measure the affinity of the purified hIgG4 molecules to human and mouse BSSL. An anti-Fab antibody (GE Healthcare, #28958325) was immobilized on a CM5 S sensor chip by primary amine coupling using NHS-EDC chemistry. hIgG4 was captured by the anti-Fab antibody, and subsequently, five different concentrations of hBSSL (1:5 dilutions starting from 50 nM) or mBSSL (1:5 dilutions starting from 500 nM) were injected over the surface. The sensor chip surface was regenerated with 10 mM glycine-HCl pH 2.1. For binding to human BSSL, single cycle kinetic data was fitted to a 1:1 binding model and kinetic parameters were retrieved using software BlAevaluation. For mouse BSSL, a steady state analysis was performed by plotting the response level at equilibrium against each concentration, and KD values were retrieved by the BlAevalution software.

[4] = target: T1, Human BSSL (bile salt-stimulated …); assay: SPR single cycle kinetics, hIgG4 S228P captured by anti-Fab
Protocol: as §1

Mouse BSSL, recombinant [5] = target: T2, Mouse BSSL, recombinant; assay: SPR steady state, captured by anti-Fab, Absolute Antibody batch
Protocol: as §1, with “Healthcare).” for “Healthcare). Single cycle kinetics was used to measure the affinity of the purified hIgG4 molecules to human and mouse BSSL.”, “(GE” for “(GE Healthcare,”, “chemistry. The” for “chemistry.”, “hIgG4 antibodies were” for “hIgG4 was”, “(1:5 dilutions, 0.08-50” for “(1:5 dilutions starting from 50”, “mBSSL (1:2 dilutions, 50-800” for “mBSSL (1:5 dilutions starting from 500”

Biotinylated human BSSL [6] = target: T3, Biotinylated human BSSL; assay: flow cytometry displacement assay; 1.5 ug antibody, 1 ug b-hBSSL
Protocol: (§2) The 28 BSSL-specific hIgG4 antibodies and the five reference antibodies at different concentrations (ranging from 0.5 μg to 3.0 μg per reaction; see Table 10) were added to b-hBSSL (1 μg per reaction, see Table 2) in round-bottom polystyrene tubes, lx PBS (pH 7.4) was added to a final volume of 20 μl and the antibody/b-hBSSL mixtures were incubated for 30 min. at +4° C. to facilitate binding of antibodies to BSSL. Buffy coat (50 μl) was then added to each antibody/b-hBSSL mixture and incubation continued for another 30 min at +4° C. Thereafter, 2 ml of FACS lysing solution (BD Biosciences) was added and the cells were incubated for 10 min at room temperature in order to lyse erythrocytes and fix the white blood cells. The cells were then centrifuged for 5 min. at 200×g, the resulting pellets were washed by adding 2 ml of FACS buffer (1×PBS supplemented with 1% FCS and 0.1% NaN3) and centrifuged again. Finally, the supernatants were discarded and the cells were resuspended in the last drop of liquid, approximately 50 μl.
(§3) 5 μl of BV421-labelled anti-human CD14 (BD Biosciences) and 5 μl of BB515-labelled streptavidin (BD Biosciences) was added to each tube and incubated for 30 min, at +4° C., protected from light. Thereafter, cells were washed twice with FACS buffer, resuspended in 500 μl FACS buffer, and run on BD LSRII flow cytometer (BD Biosciences). Finally, data were analyzed using FlowJo software (BD Biosciences).

Biotinylated human BSSL [7] = target: T3, Biotinylated human BSSL; assay: flow cytometry displacement assay; 3.0 ug antibody, 1 ug b-hBSSL
Protocol: as §2, §3

[8] = target: T1, Human BSSL (bile salt-stimulated …); assay: SPR single cycle kinetics, captured by anti-Fab, Absolute Antibody batch
Protocol: as §1, with “Healthcare).” for “Healthcare). Single cycle kinetics was used to measure the affinity of the purified hIgG4 molecules to human and mouse BSSL.”, “(GE” for “(GE Healthcare,”, “chemistry. The” for “chemistry.”, “hIgG4 antibodies were” for “hIgG4 was”, “(1:5 dilutions, 0.08-50” for “(1:5 dilutions starting from 50”, “mBSSL (1:2 dilutions, 50-800” for “mBSSL (1:5 dilutions starting from 500”

Binder | BSSL hydrolysis of triglycerides, relative value (no antibody = 100%); 0.19 ug antibody [1] [%] | BSSL hydrolysis of triglycerides, relative value (no antibody = 100%); 0.38 ug antibody [1] [%] | BSSL hydrolysis of triglycerides, relative value (no antibody = 100%); 0.75 ug antibody [1] [%] | BSSL hydrolysis of triglycerides, relative value (no antibody = 100%); 1.5 ug antibody [1] [%] | BSSL hydrolysis of triglycerides, relative value (no antibody = 100%); 3.0 ug antibody [1] [%] | BSSL hydrolysis of triglycerides, relative value (no antibody = 100%); 6.0 ug antibody [1] [%] | BSSL hydrolysis of cholesterol esters, relative value (no antibody = 100%); 0.19 ug antibody [2] [%] | BSSL hydrolysis of cholesterol esters, relative value (no antibody = 100%); 0.38 ug antibody [2] [%] | BSSL hydrolysis of cholesterol esters, relative value (no antibody = 100%); 0.75 ug antibody [2] [%] | BSSL hydrolysis of cholesterol esters, relative value (no antibody = 100%); 1.5 ug antibody [2] [%] | BSSL hydrolysis of cholesterol esters, relative value (no antibody = 100%); 3.0 ug antibody [2] [%] | BSSL hydrolysis of cholesterol esters, relative value (no antibody = 100%); 6.0 ug antibody [2] [%] | Kd (Mouse BSSL, recombinant [3]) [nM] | Kd [4] [nM] | Kd (Mouse BSSL, recombinant [5]) [nM] | percentage reduction of b-hBSSL binding to CD14+ monocytes (Biotinylated human BSSL [6]) [%] | percentage reduction of b-hBSSL binding to CD14+ monocytes (Biotinylated human BSSL [7]) [%] | Kd [8] [nM]
B1 | 105 | 123 | 121 | 113 | 119 | 126 | 95.7 | 99 | 97.6 | 88.3 | 93.5 | 97.7 | 24 | 3.7 | 55 | 43 | 61 | 3.8
B2 | 107 | 106 | 102 | 88 | 93.9 | 119 | 105 | 103 | 110 | 105 | 106 | 102 | 95 | 0.9 | 70 | 23 | 58 | 0.5
B3 | 105 | 112 | 100 | 96.2 | 106 | 108 | 104 | 107 | 102 | 103 | 107 | 107 | 52 | 0.6 | 40 | 58 | 64 | 0.5
